Common to all, as to experiment: two-hybrid; BACTH in E. coli BTH101, same co-transformants; β-galactosidase activity in Miller units, mean of 3 independent assays; negative control with empty vectors 86 ± 11 Miller units
Series [1] concerns the target DprE2 (Corynebacterium glutamicum ATCC 13032).
Series [2] has as its target AftC (Corynebacterium glutamicum ATCC 13032) (UniProt Q8NPB7).
In series [3] the target is AftB (Corynebacterium glutamicum ATCC 13032) (UniProt Q8NLR0).
Series [4] concerns the target AftA (Corynebacterium glutamicum ATCC 13032) (UniProt Q8NTW4).
The target of series [5] is UbiA (Corynebacterium glutamicum ATCC 13032).
Series [6] deals with WecA (Corynebacterium glutamicum ATCC 13032).
The target in series [7] is Emb (Corynebacterium glutamicum ATCC 13032).
Series [8] concerns the molecule itself.

Values joined by “and” are separate entries in the source; they are usually repeats but may differ in a detail not shown here. Equal values may be shown once.

For DprE1 (enzyme), the β-galactosidase activity in series [1] is 637 Miller units and 1030 Miller units.
Consider UbiA (enzyme), for which the values for the β-galactosidase activity in series [2], in series [3] and in series [4] were 755 Miller units, 1020 Miller units and 387 Miller units, respectively.
With WbbL (enzyme), the β-galactosidase activity in series [5] was 1090 Miller units and 1200 Miller units.
Take WecA (enzyme): the β-galactosidase activity in series [6] is 487 Miller units; in series [5], 1020 Miller units; in series [2], 1050 Miller units; in series [7], 1350 Miller units; in series [3], 1080 Miller units.

B1: AftB (enzyme, Corynebacterium glutamicum ATCC 13032, UniProt Q8NLR0 1-686, looked up)
chain: MTFSPQRPEFETGKQPDPETEHAGDFFEETSSSAPRAASNGSSGPNYTLITTFLAALTAGIFAFWAGWTRKWISDDGLIVLRTVRNLLAGNGPVFNAGERVEANTSTLWQYCIYLVALVTDYRLEDIALWLALLFTTAASIIGVLGTAHLHRKRIAVLLPAGVIGYFSLSPARDFATSGLEWGLSLMWISIQWLLLVLWATSGKTSGKKASGAKTSNPIVNAGAITYALAFWSGLSWLVRPELAMYGGLTGVLLLLTAPRWRVVLGILVAALPLPAAYQIFRMGYYGLMVPHTAVAKSASDAVWGTGWEYVEDFTGPYNLWLGLALLLAAGALTVWKTDKHLAIPKGRLGLRTPGMAIALLVICALVHFLYVIRVGGDFMHGRMLLLPLFAILLPVSVIPVNVVDRGWQDLVALVLVFSTWVWSTVVFVQGHQWENTGQHVVDERDFWIDFTNRDEDHPPLYAEDFLTVDSMNDYAEVMRDQTLVNPTGQQLNILASSDPTTYSWITTPRVEGVEAGDLANLSPTVFHVNLGMTSMNAPLNVRVTDLIGLATPLAARQPRIEGGRIGHDKLMDLEWQVAESATPLAYTPGWLDTQKTYEARQALRHPELVHLFQTYREPMSYHRFVDNIKYALTTGRTLEISDNPEDLLKEFNPTPAEIQDGLETIAWPGEIKLDEPRGEPLYSSQ
notes: AftB, arabinofuranosyltransferase, transmembrane, Corynebacterium glutamicum ATCC 13032; gene amplified from genomic DNA; One molecule for all four fusion forms; also called arabinofuranosyltransferase AftB; AftB-T25^N; source: E. coli BTH101, bacterial two-hybrid (BACTH) fusion; not shown: T25 or T18 fragment of Bordetella pertussis adenylate cyclase, N-terminal or C-terminal (each tested), kept
For the molecule B1, the β-galactosidase activity in series [8] was determined as 1180 Miller units.

B2: AftA (enzyme, Corynebacterium glutamicum ATCC 13032, UniProt Q8NTW4 1-661, looked up)
chain: MNPYGPSRVPEGEVYRPDRLNRKATLVAIVGAAILAFAFALVLWMGLKQTNLPAFGPSNVTRAVASATIAAVLIVTGFLTWLWLRDEHQSNPRWELEDVKPRPKWRTALTYLASYLSPAALVVAVLAIPLSATRLYLDGISVDQGFRTQFLTRMADDIGLSDMNYIDMPTFYPAGWFWLGGRLANLLGLPGWEAFQPWAIVSMAVAASVLVPVWQRITGSLPVATGIALVTTCIILAMNSEEPYAAIVAMGIPAMLVLASRIAKGDKFALAGGIIYLGVSATFYTLFTGAIALSAVAVCIVVAAIVQRSIKPLLWLAVLGGGSIVIALISWGPYLLASINGAERSGDSATHYLPLEGTQFPVPFLASSVVGLLCLVGLIYLVVRFHNNEVRAMWVGIAVFYAWMGMSMAITLLGNTLLGFRLDTVLVLIFATAGVLGIADFRLASVYQLYPTQITERTATHLTNLIVVLVLLGGLYYAQDLPQKNARAIDLAYTDTDGYGERADLYPAGAARYYKDINDHLLDQGFEPSETVVLTDELDFMSYYPYRGYQAFTSHYANPLGEFGNRNAFIEDLAIRSWDELADPQQFSDALNTSPWTIPEVFIFRGSIDDPDAGWKYDVAEDLYPNNPNVRFRGVYFNPESFDQMWQTKQVGPFVVVTHNE
notes: AftA, arabinofuranosyltransferase, transmembrane, Corynebacterium glutamicum ATCC 13032; gene amplified from genomic DNA; One molecule for all four fusion forms; also called arabinofuranosyltransferase AftA; AftA-T25^N; source: E. coli BTH101, bacterial two-hybrid (BACTH) fusion; not shown: T25 or T18 fragment of Bordetella pertussis adenylate cyclase, N-terminal or C-terminal (each tested), kept
In series [8], B2 gave a β-galactosidase activity of 714 Miller units.

B3: AftC (enzyme, Corynebacterium glutamicum ATCC 13032, UniProt Q8NPB7 1-418, looked up)
chain: MSFSPVAPSISAPTPRRSRWDSIGNAVAWPLAMLLMAHRFFVLAINGAVTDDFTTVYSALRRFVEGIPVYNEVYHFVDPHYLYNPGATLLLAPLGYITHFTLARWMFIAVNLLAIVLAFGLLTRLSGWALRSMVWPIAIALAMLTETVQNTLIFSNINGILLLMLAIFLWCVVHKKSWLGGLVIGLAILIKPMFLPLLFLPLVKKQWGSLILGILTPVIFNAVAWFLVPGASEYVTRTMPYLGETRDFANSSLPGLAIYFGMPTWMEITWFLIFGAMVGLAVLALLRFRNTEPYFWAATTTGVLLTGVFFLSSLGQMYYSMMIFPMIFTLLGSRSVFHNWVAWVAAYFFLSPDTFTSQRLPDVARWMEFFSATVGWGLLIVVTFVSALIWFIGDIRAKGTPSSPITTDPTHDHLERTA
notes: AftC, arabinofuranosyltransferase, transmembrane, Corynebacterium glutamicum ATCC 13032; gene amplified from genomic DNA; One molecule for all four fusion forms; also called arabinofuranosyltransferase AftC; AftC-T25^C; source: E. coli BTH101, bacterial two-hybrid (BACTH) fusion; not shown: T25 or T18 fragment of Bordetella pertussis adenylate cyclase, N-terminal or C-terminal (each tested), kept
In series [8], B3 came in with a β-galactosidase activity of 398 Miller units.

(Values after article PMC4213368, “Elucidation of a protein-protein interaction network involved in Corynebacterium glutamicum cell wall biosynthesis as determined by bacterial two-hybrid analysis” (Glycoconjugate Journal, 2014).)
